Results as given in article PMC2861610 (Molecular Biology of the Cell, 2010).

T1: GST fusion with the GPR loop of MyoK (Dictyostelium, UniProt Q9XXV8 114-272)
T1 sequence (looked up): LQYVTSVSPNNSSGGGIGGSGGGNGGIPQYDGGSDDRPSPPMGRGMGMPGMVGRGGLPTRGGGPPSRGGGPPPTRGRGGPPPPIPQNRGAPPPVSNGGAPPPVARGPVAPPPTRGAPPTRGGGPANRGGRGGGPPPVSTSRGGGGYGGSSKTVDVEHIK

T2: His-tagged dynamin A (Dictyostelium, UniProt Q94464 1-853)
T2 sequence (looked up): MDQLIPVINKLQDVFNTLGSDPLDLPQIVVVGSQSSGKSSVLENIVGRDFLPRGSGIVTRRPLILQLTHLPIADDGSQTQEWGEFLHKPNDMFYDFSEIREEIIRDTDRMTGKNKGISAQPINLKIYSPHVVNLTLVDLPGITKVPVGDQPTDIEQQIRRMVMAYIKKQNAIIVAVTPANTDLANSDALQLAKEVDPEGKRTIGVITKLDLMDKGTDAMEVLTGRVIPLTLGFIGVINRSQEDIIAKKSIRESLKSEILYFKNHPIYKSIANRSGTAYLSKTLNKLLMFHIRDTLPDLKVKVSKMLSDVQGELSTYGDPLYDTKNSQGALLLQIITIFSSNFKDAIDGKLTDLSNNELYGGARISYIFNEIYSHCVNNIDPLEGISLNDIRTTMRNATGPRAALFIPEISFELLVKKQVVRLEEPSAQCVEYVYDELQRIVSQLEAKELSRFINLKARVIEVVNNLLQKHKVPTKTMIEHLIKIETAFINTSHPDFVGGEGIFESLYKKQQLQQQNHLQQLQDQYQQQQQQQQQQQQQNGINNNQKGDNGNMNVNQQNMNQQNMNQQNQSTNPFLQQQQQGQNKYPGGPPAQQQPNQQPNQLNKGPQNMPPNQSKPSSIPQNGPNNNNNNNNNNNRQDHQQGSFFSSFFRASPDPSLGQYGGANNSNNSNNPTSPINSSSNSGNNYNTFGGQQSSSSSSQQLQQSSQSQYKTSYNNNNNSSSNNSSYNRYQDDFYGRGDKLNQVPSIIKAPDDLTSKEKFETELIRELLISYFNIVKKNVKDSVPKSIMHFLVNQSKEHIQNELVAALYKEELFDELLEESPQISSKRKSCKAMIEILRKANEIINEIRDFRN


Tests used:
[1] = molecular target: Abp1 (endogenous) (Dictyostelium (endogenous in Dictyostelium cells)); test: native gel or EMSA
[2] = molecular target: T1, GST fusion with the GPR loop of MyoK; test: SPR
[3] = molecular target: T2, His-tagged dynamin A; test: far-Western, overlay or dot blot
[4] = molecular target: GST-Abp1 (Dictyostelium); test: SPR

| Molecule | stoichiometry N [1] | Kd [2] [nM] | binding result [3] | Kd [4] [nM] |
| --- | --- | --- | --- | --- |
| Abp1 (endogenous) (natural protein) | 2 | – | – | – |
| GST fusion with the GPR loop of MyoK (domain or fragment) LQYVTSVSPNNSSGGGIGGSGGGNGGIPQYDGGSDDRPSPPMGRGMGMPGMVGRGGLPTRGGGPPSRGGGPPPTRGRGGPPPPIPQNRGAPPPVSNGGAPPPVARGPVAPPPTRGAPPTRGGGPANRGGRGGGPPPVSTSRGGGGYGGSSKTVDVEHIK | – | – | – | 27 |
| His-tagged dynamin A (natural protein) MDQLIPVINKLQDVFNTLGSDPLDLPQIVVVGSQSSGKSSVLENIVGRDFLPRGSGIVTRRPLILQLTHLPIADDGSQTQEWGEFLHKPNDMFYDFSEIREEIIRDTDRMTGKNKGISAQPINLKIYSPHVVNLTLVDLPGITKVPVGDQPTDIEQQIRRMVMAYIKKQNAIIVAVTPANTDLANSDALQLAKEVDPEGKRTIGVITKLDLMDKGTDAMEVLTGRVIPLTLGFIGVINRSQEDIIAKKSIRESLKSEILYFKNHPIYKSIANRSGTAYLSKTLNKLLMFHIRDTLPDLKVKVSKMLSDVQGELSTYGDPLYDTKNSQGALLLQIITIFSSNFKDAIDGKLTDLSNNELYGGARISYIFNEIYSHCVNNIDPLEGISLNDIRTTMRNATGPRAALFIPEISFELLVKKQVVRLEEPSAQCVEYVYDELQRIVSQLEAKELSRFINLKARVIEVVNNLLQKHKVPTKTMIEHLIKIETAFINTSHPDFVGGEGIFESLYKKQQLQQQNHLQQLQDQYQQQQQQQQQQQQQNGINNNQKGDNGNMNVNQQNMNQQNMNQQNQSTNPFLQQQQQGQNKYPGGPPAQQQPNQQPNQLNKGPQNMPPNQSKPSSIPQNGPNNNNNNNNNNNRQDHQQGSFFSSFFRASPDPSLGQYGGANNSNNSNNPTSPINSSSNSGNNYNTFGGQQSSSSSSQQLQQSSQSQYKTSYNNNNNSSSNNSSYNRYQDDFYGRGDKLNQVPSIIKAPDDLTSKEKFETELIRELLISYFNIVKKNVKDSVPKSIMHFLVNQSKEHIQNELVAALYKEELFDELLEESPQISSKRKSCKAMIEILRKANEIINEIRDFRN | – | – | – | 2.6 |

Continued, values first:

| stoichiometry N [1] | Kd [2] [nM] | binding result [3] | Kd [4] [nM] | Molecule |
| --- | --- | --- | --- | --- |
| – | ~500 | binds | – | Profilin I (natural protein, Dictyostelium, UniProt P26199 1-126, looked up) MSWQQYVDEQLTGAGLSQGAILGANDGGVWAKSSGINITKPEGDGIAALFKNPAEVFAKGALIGGVKYMGIKGDPQSIYGKKGATGCVLVRTGQAIIVGIYDDKVQPGSAALIVEKLGDYLRDNGY |
| – | 108 | binds | 11 | Profilin II (natural protein, Dictyostelium, UniProt P26200 1-124, looked up) MTWQAYVDNNLLGAGFASAALLGAADGSVWAHSAGFNVAEGKAITALFQKDGAAFATGIHVAGKKYMAIKSDTRSAYGKLGAGGVVCVKTLTCIIVAVYDDKLQPGAAANIAEKLADYLIDNNC |
